Consider twelve molecules from patent US20230398224A1 (Novartis, published 2023).

In general, Kd refers to the free concentration of one partner at which half of the binding sites on the other are occupied at equilibrium, for simple one-to-one binding.

The target of assay [1] is T1, Purified FHR3 with C-terminal biotinylated Avitag (human, UniProt Q02985 19-330, biotin on the C-terminal Avitag).
T1 construct: Immobilised on a NeutrAvidin NLC chip for SPR; also called complement factor H-related protein 3; hFHR3; not shown: C-terminal biotinylated Avitag
T1 sequence (looked up): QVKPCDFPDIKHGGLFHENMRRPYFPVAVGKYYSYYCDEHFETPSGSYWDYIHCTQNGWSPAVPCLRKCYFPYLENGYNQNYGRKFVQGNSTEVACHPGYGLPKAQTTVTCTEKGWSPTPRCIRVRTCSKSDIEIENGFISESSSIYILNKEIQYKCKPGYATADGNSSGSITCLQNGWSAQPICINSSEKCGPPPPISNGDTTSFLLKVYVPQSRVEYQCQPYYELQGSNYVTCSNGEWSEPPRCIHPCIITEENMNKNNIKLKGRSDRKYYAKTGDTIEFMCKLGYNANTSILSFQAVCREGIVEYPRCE
The experiment in a line: SPR, ProteOn XPR36; biotinylated FHR3 on NeutrAvidin NLC chip. The method, then:
SPR was used to obtain the binding data for FHR3 receptor ligands compounds (C12), (C13), (C14), (C15) and (C16), either alone or as part of the bifunctional compounds (BFC13), (BFC14), (BFC15), (BFC16) and (BFC17), respectively.
(§1) SPR Binding experiments were performed on a Proteon XPR36 instrument (Bio-Rad Laboratories). Purified FHR3 with C-terminal biotinylated Avitag was used for the assay. Biotinylated FHR3 was incubated with fivefold molar excess of bifunctional compounds (BFC13), (BFC14), (BFC15), (BFC16) or (BFC17), or compounds (C12), (C13), (C14), (C15) or (C16), and immobilized onto a Neutravidin coated sensor chip. (NLC chip, Bio-Rad Laboratories, Inc). After conditioning the chip by injecting running buffer (20 mM Tris pH7.5, 300 mM NaCl, 25 mM CaCl₂, 2 mM betamercaptoethanol, 2% DMSO and 0.05% Tween-20) at a flow rate of 0.1 mL/min for 240 s, FHR3 was injected at a protein concentration of 0.02 mg/ml in running buffer with fivefold molar excess of bifunctional compound and a flow rate of 0.03 mL/min followed by 4 washes with running buffer with 1 μM of bifunctional compound (0.1 mL/min for 60 seconds each).

Assay [2] deals with T2, Purified recombinant full length human PCSK9 with C-terminal biotinylated Avitag (human, UniProt Q8NBP7 31-692, biotin on the C-terminal Avitag).
T2 construct: also called hPCSK9; proprotein convertase subtilisin/kexin type 9; not shown: C-terminal biotinylated Avitag
T2 sequence (Q8NBP7 31-692): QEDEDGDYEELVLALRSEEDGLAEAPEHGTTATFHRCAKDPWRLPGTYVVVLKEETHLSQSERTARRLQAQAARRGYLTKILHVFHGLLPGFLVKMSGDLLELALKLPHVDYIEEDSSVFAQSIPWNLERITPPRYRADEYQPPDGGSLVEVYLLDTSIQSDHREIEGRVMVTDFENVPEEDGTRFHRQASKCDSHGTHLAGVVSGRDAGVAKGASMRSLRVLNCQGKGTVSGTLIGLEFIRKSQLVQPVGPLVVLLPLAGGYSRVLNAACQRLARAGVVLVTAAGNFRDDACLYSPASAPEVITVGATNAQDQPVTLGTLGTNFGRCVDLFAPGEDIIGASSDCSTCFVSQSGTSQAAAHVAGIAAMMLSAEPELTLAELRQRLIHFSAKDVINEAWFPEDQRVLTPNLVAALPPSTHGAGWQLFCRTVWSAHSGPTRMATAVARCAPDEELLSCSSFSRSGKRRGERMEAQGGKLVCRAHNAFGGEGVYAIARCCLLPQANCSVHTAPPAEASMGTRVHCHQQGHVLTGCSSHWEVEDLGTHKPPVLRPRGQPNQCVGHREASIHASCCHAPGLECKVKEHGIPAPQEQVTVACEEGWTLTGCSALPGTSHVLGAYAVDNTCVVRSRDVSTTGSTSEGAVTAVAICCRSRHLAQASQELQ
The experiment in a line: SPR, ProteOn XPR36; biotinylated human PCSK9 on NeutrAvidin NLC chip. As to the method:
SPR was used to obtain the binding data for PCSK9 receptor ligand compound (C5), either alone or as part of the bifunctional compounds (BFC1), respectively.
as §1, with “Purified recombinant full length human PCSK9” for “Purified FHR3”, “Biotinylated human PCSK9” for “Biotinylated FHR3”, “bifunctional compound (BFC1)” for “bifunctional compounds (BFC13), (BFC14), (BFC15), (BFC16)”, “or compound (C₅),” for “or (BFC17), or compounds (C12), (C13), (C14), (C15) or (C16),”, “s, PCSK9 protein” for “s, FHR3”
Background: SPR reads the build-up and loss of mass on a sensor chip optically.

The target in assay [3] is T3, M6PR.
T3 construct: also called mannose-6-phosphate receptor; M6P receptor
The experiment in a line: SPR, no details given; binding is through the mannose phosphonate moiety of the conjugate.

The target in assay [4] is T3, M6PR. The experiment in a line: SPR, no details given; binding is through the mannose-6-phosphate moiety of the conjugate.

Positions of bridges follow the written chain, without caps; N, C: chain ends. Non-standard residues stand in square brackets, D forms with d. Groups on a side chain read outwards from the residue. int‑CC7 = mannose-6-phosphonate M6PR ligand; tri‑GalNAc ASGPR ligand = not defined here; Bip = N[C@@H](Cc1ccc(-c2ccccc2)cc1)C(=O)O; NMeF = CN[C@@H](Cc1ccccc1)C(=O)O; Tic = O=C(O)[C@@H]1Cc2ccccc2CN1; int‑CC6 = not defined here; NMeA = CN[C@@H](C)C(=O)O; Sar = CNCC(=O)O

B1: Cyclic peptide compound (C12) (peptide)
peptide: {CH2CO}-FR[NMeF]SKNY[Sar]RD[Tic]N[NMeF]CG-NH2
modifications: thioether N-14; also: classes: D-residues
notes: Synthetic cyclic peptide with non-natural residues; also called FHR3 receptor ligand compound (C12)
B1 returned a Kd in assay [1] of 8 nM.

B2: Cyclic peptide (C5) (peptide)
peptide: {CH2CO}-FVPTT[Bip][NMeA][Bip][NMeA]EAPCGK(4‑oxopentanoyl)-NH2
modifications: thioether N-13
notes: also called PCSK9 ligand (C5); PCSK9 receptor ligand compound (C5)
For the molecule B2, the dissociation constant (Kd) in assay [2] stood at 1.2 nM.

B3: Bifunctional compound (BFC-17) (other)
peptide: {CH2CO}-FR[NMeF]SVNY[Sar]RK([dPEG9 diacid-tri‑GalNAc ASGPR ligand])[Tic]N[NMeF]CG-NH2
modifications: thioether N-14; reading uncertain
In turn, B3 gave a Kd in assay [1] of 55 nM.

B4: Bifunctional compound (BFC-8) (other)
peptide: {CH2CO}-FVPTT[Bip][NMeA][Bip][NMeA]EAPCGK([Lys(4-oxopentanoyl)-int‑CC7])-NH2
modifications: thioether N-13; not fully specified; also: further groups not given here
notes: BFC-8 and BFC-9 come from the same reaction of int-DD6 with int-CC7
B4 yielded a Kd in the assay with M6PR [3] of 480 nM.

B5: Cyclic peptide compound (C14) (peptide)
peptide: {CH2CO}-FR[NMeF]SVNYKRS[Tic]N[NMeF]CG-NH2
modifications: thioether N-14
SMILES: CC(C)[C@@H]1NC(=O)[C@H](CO)NC(=O)[C@H](Cc2ccccc2)N(C)C(=O)[C@H](CCCNC(=N)N)NC(=O)[C@H](Cc2ccccc2)NC(=O)CSC[C@@H](C(=O)NCC(N)=O)NC(=O)[C@H](Cc2ccccc2)N(C)C(=O)[C@H](CC(N)=O)NC(=O)[C@@H]2Cc3ccccc3CN2C(=O)[C@H](CO)NC(=O)[C@H](CCCNC(=N)N)NC(=O)[C@H](CCCCN)NC(=O)[C@H](Cc2ccc(O)cc2)NC(=O)[C@H](CC(N)=O)NC1=O
notes: Synthetic cyclic peptide; also called FHR3 receptor ligand compound (C14)
In the case of B5, in assay [1], the Kd was 162 nM.

B6: Bifunctional compound (BFC-4) (other)
peptide: {CH2CO}-FVPTT[Bip][NMeA][Bip][NMeA]EAPCGK-NH2
modifications: thioether N-13; not fully specified (residue 15); also: int-DD2 linker joined by two oximes to int-CC7
Regarding B6, the values for the Kd (with M6PR [3]; in assay [2]) were 110 nM and 4.1 nM, respectively.

B7: Bifunctional compound (BFC-9) (other)
peptide: {CH2CO}-FVPTT[Bip][NMeA][Bip][NMeA]EAPCGK([Lys(4-oxopentanoyl)-int‑CC7])-NH2
modifications: thioether N-13; not fully specified; also: further groups not given here
notes: as for B4
As to B7, binding in the assay with M6PR [3] was put at a Kd of 170 nM.

B8: Cyclic peptide compound (C16) (peptide)
peptide: {CH2CO}-FR[NMeF]SVNY[Sar]RK[Tic]N[NMeF]CG-NH2
modifications: thioether N-14
SMILES: CC(C)[C@@H]1NC(=O)[C@H](CO)NC(=O)[C@H](Cc2ccccc2)N(C)C(=O)[C@H](CCCNC(=N)N)NC(=O)[C@H](Cc2ccccc2)NC(=O)CSC[C@@H](C(=O)NCC(N)=O)NC(=O)[C@H](Cc2ccccc2)N(C)C(=O)[C@H](CC(N)=O)NC(=O)[C@@H]2Cc3ccccc3CN2C(=O)[C@H](CCCCN)NC(=O)[C@H](CCCNC(=N)N)NC(=O)CN(C)C(=O)[C@H](Cc2ccc(O)cc2)NC(=O)[C@H](CC(N)=O)NC1=O
notes: Synthetic cyclic peptide; also called FHR3 receptor ligand compound (C16)
For the molecule B8, the affinity in assay [1], expressed as Kd, was 13 nM.

B9: Cyclic peptide compound (C15) (peptide)
peptide: {CH2CO}-F[NMeF][NMeA]SLHW[NMeA]RKDRCG-NH2
modifications: thioether N-13
notes: also called FHR3 receptor ligand compound (C15)
For the molecule B9, binding in assay [1] was characterised by a dissociation constant (Kd) of 15 nM.

B10: Bifunctional compound (BFC-14) (other)
peptide: {CH2CO}-FK([dPEG9 diacid-tri‑GalNAc ASGPR ligand])[NMeA]SLHW[NMeA]RPDRCG-NH2
modifications: thioether N-13; reading uncertain
In the case of B10, the Kd in assay [1] was determined as 80 nM.

B11: Cyclic peptide compound (C13) (peptide)
peptide: {CH2CO}-FK[NMeA]SLHW[NMeA]RPDRCG-NH2
modifications: thioether N-13
SMILES: CC(C)C[C@@H]1NC(=O)[C@H](CO)NC(=O)[C@H](C)N(C)C(=O)[C@H](CCCCN)NC(=O)[C@H](Cc2ccccc2)NC(=O)CSC[C@@H](C(=O)NCC(N)=O)NC(=O)[C@H](CCCNC(=N)N)NC(=O)[C@H](CC(=O)O)NC(=O)[C@@H]2CCCN2C(=O)[C@H](CCCNC(=N)N)NC(=O)[C@H](C)N(C)C(=O)[C@H](Cc2c[nH]c3ccccc23)NC(=O)[C@H](Cc2c[nH]cn2)NC1=O
notes: Synthetic cyclic peptide; also called FHR3 receptor ligand compound (C13)
For the molecule B11, in assay [1], binding was put at a Kd of 48 nM.

B12: Bifunctional compound (BFC-2) (other)
peptide: {CH2CO}-FVPTT[Bip][NMeA][Bip][NMeA]EAPCGK([4‑formylbenzoyl-int‑CC6])-NH2
modifications: thioether N-13; reading uncertain; also: 4-formylbenzoyl joined to int-CC6 as oxime
B12: the Kd is 9.2 nM in assay [2] and 7.19 nM in the assay with M6PR [4].
